Test results taken from the supplement of paper PMC10567573.

B1: CDC25B (parent)
chain: FVDILESDLKDDDAVPPGMESLIS
B2: PTPN9 (parent)
chain: NKWTVQYNVSPLSWNVAVKFLMAR

Variants of: B1
Assay: protein stability index of a GFP-peptide fusion (GPS, HEK-293T) (PSI 1-6); higher = more stable
Conditions: c terminus: a fixed tail appended
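Further: lentivirally expressed fusions sorted by FACS into six bins by GFP to DsRed ratio, PSI derived from sequencing read proportions per bin multiplied by bin number.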

Protein stability index, by site and new letter:
L9: I 3.05; K 3.4
L22: K 2.99
I23: M 3.02; W 2.25; P 2.96; S 3.3
K10: M 3.2; H 2.97
D8: C 2.15
V15: F 2.39; E 3.11; D 3.11
G18: H 3.11; T 3.28
D3: H 2.91; Q 3.04
M19: Y 2.32; G 3.06; Q 3.6
D13: Y 2.11; E 2.95; L 2.61
F1: Y 3.83; I 4.33; K 5.17
I4: Y 2.52; G 3.46; K 2; H 3
P16: G 3.02
D12: M 2.08
S7: M 2.6
L5: R 2.94
E6: L 2.45; M 2.38; Q 2.89
S21: V 2.93
P17: H 2.61
A14: R 2.75
D11: E 3.17

Variants of: B2
Assay: as above
Conditions: c terminus: a fixed tail appended

Protein stability index: each site, then its substitutions
W14: I 3.02; E 1.28; K 2.24; M 2.75; H 2.15; R 2.4; V 2.4; T 1.93; P 2.08; D 1.62; Y 2.01; N 2.06; L 2.71; A 2.09; G 2.35; S 1.78; C 2.29; Q 2.62
L21: P 1.26; R 3.22; S 3.66; V 3.01; I 3.32; H 2.98; D 2.03; K 2.5; N 1.72; A 3.37; W 1.63; G 1.73; M 2.35; T 2.9; E 1.9; Y 2.89
Y7: M 2.91; D 1.91; C 2.47; S 2.84; G 1.15; N 2.14; P 1.84; V 3.44; K 2.94; A 3.49; L 2.76; I 2.83; R 1.14; H 1.68; F 3.3; E 2.17; Q 1.75; T 1.81
M22: G 1.83; R 1.88; Y 3.05; K 2.73; T 2.09; D 2.27; N 2.06; E 1.73; C 2.06; H 2.36; P 2.29; F 3.6; I 2.72
V5: Y 1.67; I 3.45; G 2.31; D 1.76; Q 1.92; P 1.94; W 5.45; H 3.13; S 1.99; E 2.94; L 2.96; M 3.19; C 1.83; N 1.95; K 3.16; A 2.04; T 3.23
K19: D 3.33; Q 3.01; Y 3.14; C 2.41; E 3.72; M 2.06; L 3.29; H 3.44; T 2.69; P 1.28; F 1.89; R 2.64; N 1.63; A 1.74
V9: E 1.46; A 3.1; Q 1.43; K 2.56; T 2.65; P 1.6; I 4.2; D 2.06; R 1.55; S 2; Y 2.1; G 3.82; C 3.09; W 2.98; L 2.45
T4: N 1.81; Q 2.27; P 1.76; M 2.57; Y 3.46
R24: M 2.65; K 2.18; A 3.97; H 2.82; G 2.72; S 1.83; L 1.53; V 2.97; C 2.63; P 1.23; Q 2.94; W 3.09; D 2.41; N 3.31; Y 2.66; T 2.27; F 1.41
S10: V 3.2; N 2.35; W 2.48; F 2.12; Y 1.82; T 3.21; C 3.37; D 2.26; A 2.26; I 1.62; H 2.23; M 2.81
N15: F 2.02; P 2.39; Y 1.9; W 2.27; T 2.89; A 3.46; I 3.96; K 4.23; L 1.92; M 2.53; E 3.45
V18: P 1.28; Q 1.49; G 1.8; W 1.77; R 2.08; C 2.73; S 2.94; T 2.76; L 2.72; E 1.49; A 2.48; D 2.03; K 2.72; Y 2.04; F 2.44; I 2.62; H 1.78; N 2.21
A17: R 1.47; T 2.28; D 1.78; M 2.92; H 2.23; P 2.37; N 1.22; K 2.28; F 1.58; I 3.65; Q 3.33
Q6: M 2.02; H 3.77; F 2.83; E 3.28; D 2.28; A 1.78; R 4.19; P 2.54; G 1.7; V 2.79; N 2.38; K 3.19; Y 2.07; S 2.46; C 2.98; T 2.6
A23: Q 2.55; R 2.58; L 4.22; H 3.31; C 1.95; V 2.43; F 2.72; M 3.33; I 2.44; P 2.3; S 2.48; Y 2.98; N 2.54; D 2.21
S13: M 3.55; R 2.34; A 1.35; D 2.74; N 3.31; C 3.09; H 2.51; V 2.88; K 2.74; P 2.31; Y 2.32; E 1.69; Q 2.02; W 2.65; I 1.99; G 2.81
F20: Y 2.94; P 1.68; C 1.68; A 3.35; T 2.1; G 2.97; I 2.27; R 3.62; Q 2.38; K 1.4; D 1.97; S 2.3; N 2.25; E 2.68; W 3.8; H 1.67
L12: A 4.28; H 2.66; C 2.9; P 1.52; Q 1.72; R 4.48; D 3.6; I 2.07; M 2.17; V 2.89; S 1.88; W 3.11
V16: L 2.38; M 3.58; C 3.82; S 1.87; E 2.65; R 3.68; P 1.99; Y 2.6; G 2.55; F 3.88; A 2.35; H 2.69; K 3.3; D 1.93; N 1.51; Q 1.52
N8: H 2.26; T 2.15; R 2.26; A 1.49; L 2.45; P 1.68; Y 3.61; S 2; C 3.2; D 2.07
P11: G 2.51; N 2.66; E 2.43; W 4.3; A 2.01; H 3.88; L 2.59; S 4.04
